T1: CIN85-ABC (UniProt Q96B97 1-333)
T1 construct: also called CIN85_(1-333); wildtype-like CIN85-ABC construct
T1 sequence (looked up): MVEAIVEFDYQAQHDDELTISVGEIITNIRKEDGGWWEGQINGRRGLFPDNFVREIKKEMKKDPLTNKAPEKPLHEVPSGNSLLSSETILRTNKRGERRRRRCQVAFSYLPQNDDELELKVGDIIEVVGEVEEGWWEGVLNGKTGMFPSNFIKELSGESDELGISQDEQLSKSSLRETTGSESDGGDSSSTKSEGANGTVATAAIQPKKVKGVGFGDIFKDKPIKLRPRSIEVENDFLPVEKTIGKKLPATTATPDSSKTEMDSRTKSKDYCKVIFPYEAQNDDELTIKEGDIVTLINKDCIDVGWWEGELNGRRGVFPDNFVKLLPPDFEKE

B1: SLP65_(1-330) (domain or fragment, UniProt Q8WV28 1-330, looked up)
chain: MDKLNKITVPASQKLRQLQKMVHDIKNNEGGIMNKIKKLKVKAPPSVPRRDYASESPADEEEQWSDDFDSDYENPDEHSDSEMYVMPAEENADDSYEPPPVEQETRPVHPALPFARGEYIDNRSSQRHSPPFSKTLPSKPSWPSEKARLTSTLPALTALQKPQVPPKPKGLLEDEADYVVPVEDNDENYIHPTESSSPPPEKAPMVNRSTKPNSSTPASPPGTASGRNSGAWETKSPPPAAPSPLPRAGKKPTTPLKTTPVASQQNASSVCEEKPIPAERHRGSSHRQEAVQSPVFPPAQKQIHQKPIPLPRFTEGGNPTVDGPLPSFSS
notes: Src homology 2 domain-containing leukocyte protein of 65 kDa (SLP65, BLNK), shortened at the C-terminus, residues 1-330, lacks the C-terminal SH2 domain; also called Wildtype SLP65_(1-330); BLNK
B2: CIN85-BBB (domain or fragment)
chain: RRRRRCQVAFSYLPQNDDELELKVGDIIEVVGEVEEGWWEGVLNGKTGMFPSNFIKELSGEMKKDPLTNKAPEKPLHEVPSGNSLLSSETILRTNKRGERRRRRCQVAFSYLPQNDDELELKVGDIIEVVGEVEEGWWEGVLNGKTGMFPSNFIKELSGESDELGISQDEQLSKSSLRETTGSESDGGDSSSTKSEGANGTVATAAIQPKKVKGVGFGDIFKDKPIKLRPRSIEVENDFLPVEKTIGKKLPATTATPDSSKTEMDSRTRRRRRCQVAFSYLPQNDDELELKVGDIIEVVGEVEEGWWEGVLNGKTGMFPSNFIKELSGDFEKE

What was measured:
Test in all cases: ITC; multivalent SLP65 constructs with multivalent CIN85 constructs (global KD); conditions in the SI Appendix
Settings in all cases: both partners purified
[1] = target: T1, CIN85-ABC
[2] = target: B2
[3] = target: B1

Kd [1] [nM] | Kd [2] [nM] | Kd [3] [nM] | Binder
1360 ± 170 |  |  | B1
240 ± 10 | 140 ± 60 |  | SLP65-3xPRM4 (domain or fragment, 1-330 is printed; the text says PRMs are six residues long. The swapped limits are assumed: PRM5 275-280 and PRM6 307-312, each replaced by PRM4 242-247. Partly Atto430LS-labelled for microscopy.) MDKLNKITVPASQKLRQLQKMVHDIKNNEGGIMNKIKKLKVKAPPSVPRRDYASESPADEEEQWSDDFDSDYENPDEHSDSEMYVMPAEENADDSYEPPPVEQETRPVHPALPFARGEYIDNRSSQRHSPPFSKTLPSKPSWPSEKARLTSTLPALTALQKPQVPPKPKGLLEDEADYVVPVEDNDENYIHPTESSSPPPEKAPMVNRSTKPNSSTPASPPGTASGRNSGAWETKSPPPAAPSPLPRAGKKPTTPLKTTPVASQQNASSVCEEKPSPLPRHRGSSHRQEAVQSPVFPPAQKQIHQKPSPLPRFTEGGNPTVDGPLPSFSS
7040 ± 1120 |  |  | SLP65-R247A (domain or fragment, UniProt Q8WV28 1-330, looked up, the C-terminally shortened version (1-330) was used for measurements) MDKLNKITVPASQKLRQLQKMVHDIKNNEGGIMNKIKKLKVKAPPSVPRRDYASESPADEEEQWSDDFDSDYENPDEHSDSEMYVMPAEENADDSYEPPPVEQETRPVHPALPFARGEYIDNRSSQRHSPPFSKTLPSKPSWPSEKARLTSTLPALTALQKPQVPPKPKGLLEDEADYVVPVEDNDENYIHPTESSSPPPEKAPMVNRSTKPNSSTPASPPGTASGRNSGAWETKSPPPAAPSPLPAAGKKPTTPLKTTPVASQQNASSVCEEKPIPAERHRGSSHRQEAVQSPVFPPAQKQIHQKPIPLPRFTEGGNPTVDGPLPSFSS
 |  | 700 ± 250 | B2

Source: publication PMC10923291, “Quantitative description of the phase-separation behavior of the multivalent SLP65–CIN85 complex” (PNAS Nexus, 2024)
